The text below walks through data of PMC13570301.

Where a chain is given by its changes, count along the chain named. Numbers in names are those of the source.

Test [1] deals with T1, CHIP G33S, recombinant, C-terminal His tag, Q9UNE7-1.
T1 chain: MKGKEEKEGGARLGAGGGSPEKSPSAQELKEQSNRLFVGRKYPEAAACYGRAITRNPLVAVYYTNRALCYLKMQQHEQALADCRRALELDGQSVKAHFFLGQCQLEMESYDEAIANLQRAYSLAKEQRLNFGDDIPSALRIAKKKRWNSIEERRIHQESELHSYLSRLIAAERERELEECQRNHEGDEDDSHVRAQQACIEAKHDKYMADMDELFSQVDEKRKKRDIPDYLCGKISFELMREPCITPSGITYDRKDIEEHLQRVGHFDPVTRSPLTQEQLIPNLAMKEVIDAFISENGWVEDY
The test is described as follows: mass photometry. Particulars: chain shown with the change, self-association, fraction weighted by number of monomeric subunits, n = 3, read off a plot.

In test [2] the target is T2, CHIP-myc wild type (pcDNA3-CHIP-myc) (human), Q9UNE7.
T2 chain: T1 chain with S33G
The experiment in a line: native gel or EMSA; Blue native PAGE and immunoblot of lysates (Native PAGE sample buffer, 1% digitonin) of transfected COS-7 cells kept at 37 °C or heat-shocked at 42 °C for 2 h; self-association. To be noted: remark: other sources report otherwise.

B1: CHIP wild type, recombinant, C-terminal His tag (pET30-CHIP-His), Q9UNE7-1 G33S (protein)
chain: T1 chain
With B1, in test [1] (parent: est. 0.12), the other: fraction of total CHIP in octamer (8n) was 0.13. Also, in test [1] (parent: est. 0.23), the other: fraction of total CHIP in hexamer (6n) stood at 0.2. The other: fraction of total CHIP in dimer (2n) in test [1] (parent: est. 0.32) was determined as 0.38. The other: fraction of total CHIP in tetramer (4n) in test [1] (parent: est. 0.33) turned out to be 0.3.

B2: CHIP-myc wild type (pcDNA3-CHIP-myc), Q9UNE7-1 1-303 (enzyme)
chain: T1 chain with S33G
The molecule B2 had a stoichiometry N in test [2] of 2.
